The target of this experiment is Flag-tagged BPGAP1. The experiment can be described thus: co-immunoprecipitation (anti-Flag M2 beads) with immunoblot quantification. Particulars: HEK293T cell lysates; three independent experiments; parent: est. 1.0; read off a plot. Background: Immunoblotting shows a protein as a band on a membrane.

With “HA-tagged Rac1, wild-type (WT) (from UniProt P63000) T17N”, the ratio to parent is 2.2 fold change.
Turning to “HA-tagged Rac1, wild-type (WT) (from UniProt P63000) G12V”, the ratio to parent came to 0.72 fold change.

The values above are taken from publication PMC10011724.
